{"source": "paper PMC9638933", "key": {"KuWT;LigD": {"biological_target": "KuWT;LigD (Mycobacterium …, UniProt P9WKD9;P9WNV3 1-273;1-759, |)", "sequence (P9WKD9 whole entry, chain 1 of 2)": "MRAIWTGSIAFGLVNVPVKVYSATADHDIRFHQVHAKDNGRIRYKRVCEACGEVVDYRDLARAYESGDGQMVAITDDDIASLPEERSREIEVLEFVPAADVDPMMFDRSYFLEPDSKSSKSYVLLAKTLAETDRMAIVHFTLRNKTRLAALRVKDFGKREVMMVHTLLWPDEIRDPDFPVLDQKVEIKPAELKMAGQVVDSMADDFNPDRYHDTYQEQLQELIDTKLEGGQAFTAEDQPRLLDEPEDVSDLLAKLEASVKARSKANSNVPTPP", "sequence (P9WNV3 whole entry, chain 2 of 2)": "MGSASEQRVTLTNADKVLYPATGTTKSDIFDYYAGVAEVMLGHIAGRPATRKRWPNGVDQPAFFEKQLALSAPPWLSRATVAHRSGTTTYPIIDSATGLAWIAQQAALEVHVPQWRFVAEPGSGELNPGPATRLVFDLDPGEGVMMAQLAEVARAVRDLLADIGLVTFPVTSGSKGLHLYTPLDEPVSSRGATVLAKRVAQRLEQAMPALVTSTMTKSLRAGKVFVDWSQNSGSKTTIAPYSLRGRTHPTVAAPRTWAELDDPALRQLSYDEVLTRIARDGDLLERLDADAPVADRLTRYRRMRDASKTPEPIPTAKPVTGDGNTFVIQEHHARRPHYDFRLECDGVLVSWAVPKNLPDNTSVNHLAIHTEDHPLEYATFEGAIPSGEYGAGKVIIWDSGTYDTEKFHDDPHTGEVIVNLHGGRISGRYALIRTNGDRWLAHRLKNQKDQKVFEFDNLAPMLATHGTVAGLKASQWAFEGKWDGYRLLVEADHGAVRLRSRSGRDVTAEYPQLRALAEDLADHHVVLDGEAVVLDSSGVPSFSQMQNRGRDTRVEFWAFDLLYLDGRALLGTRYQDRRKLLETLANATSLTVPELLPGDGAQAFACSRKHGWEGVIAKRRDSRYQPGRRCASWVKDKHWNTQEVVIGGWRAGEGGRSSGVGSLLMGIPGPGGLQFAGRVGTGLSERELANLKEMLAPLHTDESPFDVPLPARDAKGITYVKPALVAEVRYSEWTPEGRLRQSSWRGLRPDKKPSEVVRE", "assay": "EMSA; 10 uM Ku, 1 uM LigD; supershift; EMSA: 50 mM Tris-HCl pH 8.0, 50 mM NaCl, 1 mM DTT, 5 mM MgCl2, 4% glycerol, 0.025 mg/ml BSA, 10 nM DNA, 30 C 20 min; FP: 10 mM Tris-HCl pH 8, 10 mM NaCl, 10% glycerol, 1 mM TCEP, 50 nM DNA, 30 C; ternary EMSA: 20 mM Tris-HCl pH 8.0, 5 mM MgCl2, 5% glycerol, 37 C; bridging: 20 mM Tris-HCl pH 7.5, 50 mM KCl, 5 mM EDTA, 1 mM DTT, 5% glycerol, 40 ug/ml BSA, room temperature", "conditions": "protein: recombinant;recombinant; tags: His (Ni-NTA purified; pMCSG7);His (Ni-NTA purified; pMCSG7); chain copies: 2;1; label: 5' 6-FAM on strand 1; blunt"}, "Kumin;LigD": {"biological_target": "Kumin;LigD (Mycobacterium …, UniProt P9WKD9;P9WNV3 1-259;1-759, |)", "sequence (P9WNV3 whole entry, chain 2 of 2, one chain of several)": "as the sequence (P9WNV3 whole entry, chain 2 of 2) above", "assay": "EMSA; 10 uM Ku, 1 uM LigD; supershift; EMSA: 50 mM Tris-HCl pH 8.0, 50 mM NaCl, 1 mM DTT, 5 mM MgCl2, 4% glycerol, 0.025 mg/ml BSA, 10 nM DNA, 30 C 20 min; FP: 10 mM Tris-HCl pH 8, 10 mM NaCl, 10% glycerol, 1 mM TCEP, 50 nM DNA, 30 C; ternary EMSA: 20 mM Tris-HCl pH 8.0, 5 mM MgCl2, 5% glycerol, 37 C; bridging: 20 mM Tris-HCl pH 7.5, 50 mM KCl, 5 mM EDTA, 1 mM DTT, 5% glycerol, 40 ug/ml BSA, room temperature", "conditions": "protein: recombinant;recombinant; tags: His (Ni-NTA purified; pMCSG7);His (Ni-NTA purified; pMCSG7); chain copies: 2;1; label: 5' 6-FAM on strand 1; blunt"}, "Kucore;LigD": {"biological_target": "Kucore;LigD (Mycobacterium …, UniProt P9WKD9;P9WNV3 1-238;1-759, |)", "sequence (P9WNV3 whole entry, chain 2 of 2, one chain of several)": "as the sequence (P9WNV3 whole entry, chain 2 of 2) above", "assay": "EMSA; 10 uM Ku, 1 uM LigD; supershift; EMSA: 50 mM Tris-HCl pH 8.0, 50 mM NaCl, 1 mM DTT, 5 mM MgCl2, 4% glycerol, 0.025 mg/ml BSA, 10 nM DNA, 30 C 20 min; FP: 10 mM Tris-HCl pH 8, 10 mM NaCl, 10% glycerol, 1 mM TCEP, 50 nM DNA, 30 C; ternary EMSA: 20 mM Tris-HCl pH 8.0, 5 mM MgCl2, 5% glycerol, 37 C; bridging: 20 mM Tris-HCl pH 7.5, 50 mM KCl, 5 mM EDTA, 1 mM DTT, 5% glycerol, 40 ug/ml BSA, room temperature", "conditions": "protein: recombinant;recombinant; tags: His (Ni-NTA purified; pMCSG7);His (Ni-NTA purified; pMCSG7); chain copies: 2;1; label: 5' 6-FAM on strand 1; blunt"}, "KuWT;LIG": {"biological_target": "KuWT;LIG (Mycobacterium …, UniProt P9WKD9;P9WNV3 1-273;454-759, |)", "sequence (P9WKD9 whole entry, chain 1 of 2)": "as the sequence (P9WKD9 whole entry, chain 1 of 2) above", "sequence (P9WNV3 454-759, chain 2 of 2)": "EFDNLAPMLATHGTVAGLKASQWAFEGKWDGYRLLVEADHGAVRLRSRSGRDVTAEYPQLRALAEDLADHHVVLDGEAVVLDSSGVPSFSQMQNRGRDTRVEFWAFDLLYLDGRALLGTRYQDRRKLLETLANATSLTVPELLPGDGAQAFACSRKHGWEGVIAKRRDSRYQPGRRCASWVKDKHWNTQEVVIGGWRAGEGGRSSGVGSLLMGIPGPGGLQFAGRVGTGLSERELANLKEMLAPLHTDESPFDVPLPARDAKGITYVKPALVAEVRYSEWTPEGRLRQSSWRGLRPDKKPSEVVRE", "assay": "EMSA; supershift; EMSA: 50 mM Tris-HCl pH 8.0, 50 mM NaCl, 1 mM DTT, 5 mM MgCl2, 4% glycerol, 0.025 mg/ml BSA, 10 nM DNA, 30 C 20 min; FP: 10 mM Tris-HCl pH 8, 10 mM NaCl, 10% glycerol, 1 mM TCEP, 50 nM DNA, 30 C; ternary EMSA: 20 mM Tris-HCl pH 8.0, 5 mM MgCl2, 5% glycerol, 37 C; bridging: 20 mM Tris-HCl pH 7.5, 50 mM KCl, 5 mM EDTA, 1 mM DTT, 5% glycerol, 40 ug/ml BSA, room temperature", "conditions": "protein: recombinant;recombinant; tags: His (Ni-NTA purified; pMCSG7);His (Ni-NTA purified); chain copies: 2;1; label: 5' 6-FAM on strand 1; blunt"}, "Kumin": {"biological_target": "T1, Kumin (Mycobacterium tuberculosis, UniProt P9WKD9 1-259)", "T1 sequence": "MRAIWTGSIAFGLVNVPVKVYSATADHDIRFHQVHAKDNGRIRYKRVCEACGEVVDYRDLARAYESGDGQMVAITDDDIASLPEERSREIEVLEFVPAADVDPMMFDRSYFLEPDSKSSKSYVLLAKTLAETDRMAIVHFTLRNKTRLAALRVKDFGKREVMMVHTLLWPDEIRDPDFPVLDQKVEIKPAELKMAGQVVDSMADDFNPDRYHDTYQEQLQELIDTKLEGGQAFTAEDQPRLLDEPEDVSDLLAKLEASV", "assay": "EMSA; 5 mM Mg2+; EMSA: 50 mM Tris-HCl pH 8.0, 50 mM NaCl, 1 mM DTT, 5 mM MgCl2, 4% glycerol, 0.025 mg/ml BSA, 10 nM DNA, 30 C 20 min; FP: 10 mM Tris-HCl pH 8, 10 mM NaCl, 10% glycerol, 1 mM TCEP, 50 nM DNA, 30 C; ternary EMSA: 20 mM Tris-HCl pH 8.0, 5 mM MgCl2, 5% glycerol, 37 C; bridging: 20 mM Tris-HCl pH 7.5, 50 mM KCl, 5 mM EDTA, 1 mM DTT, 5% glycerol, 40 ug/ml BSA, room temperature", "conditions": "protein: recombinant; tags: His (Ni-NTA purified; pMCSG7); chain copies: 2; label: 5' 6-FAM on strand 1; blunt"}, "Kucore": {"biological_target": "T2, Kucore (Mycobacterium tuberculosis, UniProt P9WKD9 1-238)", "T2 sequence": "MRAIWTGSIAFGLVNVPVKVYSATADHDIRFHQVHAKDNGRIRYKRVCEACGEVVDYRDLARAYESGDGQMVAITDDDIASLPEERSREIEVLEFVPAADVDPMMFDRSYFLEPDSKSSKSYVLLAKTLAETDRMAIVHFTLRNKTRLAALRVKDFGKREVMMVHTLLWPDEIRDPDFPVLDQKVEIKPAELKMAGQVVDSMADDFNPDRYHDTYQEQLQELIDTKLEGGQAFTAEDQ", "assay": "EMSA; 5 mM Mg2+; EMSA: 50 mM Tris-HCl pH 8.0, 50 mM NaCl, 1 mM DTT, 5 mM MgCl2, 4% glycerol, 0.025 mg/ml BSA, 10 nM DNA, 30 C 20 min; FP: 10 mM Tris-HCl pH 8, 10 mM NaCl, 10% glycerol, 1 mM TCEP, 50 nM DNA, 30 C; ternary EMSA: 20 mM Tris-HCl pH 8.0, 5 mM MgCl2, 5% glycerol, 37 C; bridging: 20 mM Tris-HCl pH 7.5, 50 mM KCl, 5 mM EDTA, 1 mM DTT, 5% glycerol, 40 ug/ml BSA, room temperature", "conditions": "protein: recombinant; tags: His (Ni-NTA purified; pMCSG7); chain copies: 2; label: 5' 6-FAM on strand 1; blunt"}}, "data": [{"binder": "40 bp dsDNA (dsDNA) DNA 1: CAGGGTAAGTGTGGAGGTGTAGGGAAGGGAATGTTGTCTG DNA 2: CAGACAACATTCCCTTCCCTACACCTCCACACTTACCCTG", "values": [{"measurement": "binding result", "setting": "KuWT;LigD", "result": "binds"}, {"measurement": "binding result", "setting": "Kumin;LigD", "result": "binds"}, {"measurement": "binding result", "setting": "Kucore;LigD", "result": "binds"}, {"measurement": "binding result", "setting": "KuWT;LIG", "result": "binds"}, {"measurement": "Kd", "setting": "Kumin", "result": "460 ± 80", "unit": "nM"}, {"measurement": "Kd", "setting": "Kucore", "result": "70 ± 10", "unit": "nM"}]}]}
